Laboratory results published in article PMC11984713.

Target: FLAG-SpbK (Bacillus subtilis (ICEBs1))

fold decrease in cellular levels of NAD^+ 15 to 30 minutes after induction of yonE in cells expressing spbK (untagged proteins): 100 fold
Substance: YonE-Myc (natural protein)
